Results taken from patent US20200308246A1 (published 2020).
Where no end group is shown, it is not given here. [ ]: non-standard residue; d: D form. pS = N[C@@H](COP(=O)(O)O)C(=O)O

T1: MLL (KMT2A), MLL-pP peptide on HLA-B*07:02 (human)
T1 peptide: RVR[pS]PTRSP

T2: MLL-pM-A4 peptide on HLA-B*07:02 (human)
T2 peptide: EPRAPSHSM

T3: MLL-pM-A2 peptide on HLA-B*07:02 (human)
T3 peptide: EAR[pS]PSHSM

T4: MLL-pM-A8 peptide on HLA-B*07:02 (human)
T4 peptide: EPR[pS]PSHAM

T5: MLL-pM-A3 peptide on HLA-B*07:02 (human)
T5 peptide: EPA[pS]PSHSM

T6: MLL-pM-A7 peptide on HLA-B*07:02 (human)
T6 peptide: EPR[pS]PSASM

T7: MLL-pM-A9 peptide on HLA-B*07:02 (human)
T7 peptide: EPR[pS]PSHSA

T8: MLL-pM-A5 peptide on HLA-B*07:02 (human)
T8 peptide: EPR[pS]ASHSM

T9: MLL-pM-A6 peptide on HLA-B*07:02 (human)
T9 peptide: EPR[pS]PAHSM

T10: MLL-pM-A1 peptide on HLA-B*07:02 (human)
T10 peptide: APR[pS]PSHSM


Tests used:
[1] = target: T1, MLL (KMT2A), MLL-pP peptide on …; test: activation reporter or marker
[2] = target: T2, MLL-pM-A4 peptide on HLA-B*07:02; test: activation reporter or marker
[3] = target: T3, MLL-pM-A2 peptide on HLA-B*07:02; test: activation reporter or marker
[4] = target: T4, MLL-pM-A8 peptide on HLA-B*07:02; test: activation reporter or marker
[5] = target: T5, MLL-pM-A3 peptide on HLA-B*07:02; test: activation reporter or marker
[6] = target: T6, MLL-pM-A7 peptide on HLA-B*07:02; test: activation reporter or marker
[7] = target: T7, MLL-pM-A9 peptide on HLA-B*07:02; test: activation reporter or marker
[8] = target: T8, MLL-pM-A5 peptide on HLA-B*07:02; test: activation reporter or marker
[9] = target: T9, MLL-pM-A6 peptide on HLA-B*07:02; test: activation reporter or marker
[10] = target: T10, MLL-pM-A1 peptide on HLA-B*07:02; test: activation reporter or marker
[11] = target: T1, MLL (KMT2A), MLL-pP peptide on …; test: multimer staining

| Binder | binding result [1] | binding result [2] | binding result [3] | binding result [4] | binding result [5] | binding result [6] | binding result [7] | binding result [8] | binding result [9] | binding result [10] | binding result [11] |
| --- | --- | --- | --- | --- | --- | --- | --- | --- | --- | --- | --- |
| TCR0077 (TCR, V domains shown) Valpha: TQLLEQSPQFLSIQEGENLTVYCNSSSVFSSLQWYRQEPGEGPVLLVTVVTGGEVKKLKRLTFQFGDARKDSSLHITAAQPGDTGLYLCAGYGGGSNYKLTFGAGTRLTVKP Vbeta: EAQVTQNPRYLITVTGKKLTVTCSQNMNHEYMSWYRQDPGLGLRQIYYSMNVEVTDKGDVPEGYKVSRKEKRNFPLILESPSPNQTSLYFCASRLTGRVHGYTFGPGTRLTVL | no recognition | no recognition | no recognition | recognises | recognises | no recognition | no recognition | no recognition | no recognition | no recognition | – |
| TCR0085 (TCR, V domains shown) Valpha: KQEVTQIPAALSVPEGENLVLNCSFTDSAIYNLQWFRQDPGKGLTSLLLIQSSQREQTSGRLNASLDKSSGRSTLYIAASQPGDSATYLCAVMLWNQGGKLIFGQGTELSVKP Vbeta: KAGVTQTPRYLIKTRGQQVTLSCSPISGHRSVSWYQQTPGQGLQFLFEYFSETQRNKGNFPGRFSGRQFSNSRSEMNVSTLELGDSALYLCASSLGRGYEQYFGPGTRLTVT | – | no recognition | no recognition | no recognition | no recognition | no recognition | no recognition | no recognition | no recognition | no recognition | recognises |
